Consider 41 sequences from the Immune Epitope Database (IEDB).

One experiment has as its target HLA-A*24:02. As to the kind of experiment: IEDB peptide-MHC binding, purified MHC/competitive/radioactivity; filed as Kd, often an IC50 or EC50 that approximates it; ≥ and ≤ were set here for values at or beyond the usual limits of such assays.
The target of experiment [1] is HLA-A*02:01. Kind of experiment: IEDB peptide-MHC binding, purified MHC/competitive/fluorescence; ≥ and ≤ were set here for values at or beyond the usual limits of such assays.
For the next experiment, the target named is HLA-A*23:01. As to the kind of experiment: IEDB peptide-MHC binding, purified MHC/competitive/radioactivity; filed as Kd, often an IC50 or EC50 that approximates it; ≥ and ≤ were set here for values at or beyond the usual limits of such assays.
A further experiment concerns the target HLA-A*29:02. The description is as above.
In experiment [2] the target is HLA-A*02:01. Kind of experiment: IEDB peptide-MHC binding, purified MHC/direct/fluorescence; filed as Kd, often an IC50 or EC50 that approximates it; ≥ and ≤ were set here for values at or beyond the usual limits of such assays.
A further experiment addresses HLA-A*69:01. The experiment is described as above.
A further experiment has as its target HLA-A*30:02. Kind of experiment: IEDB peptide-MHC binding, purified MHC/competitive/radioactivity; filed as Kd, often an IC50 or EC50 that approximates it; ≥ and ≤ were set here for values at or beyond the usual limits of such assays.
A further experiment deals with HLA-A*01:01. The experiment is described as above.
In a further experiment the target is HLA-A*02:02. Described as above.
In a further experiment the target is HLA-A*02:03. The description is as above.
Another experiment has as its target HLA-A*02:06. Described as above.
Experiment [3] deals with HLA-A*02:01. As to the kind of experiment: IEDB peptide-MHC binding, purified MHC/competitive/fluorescence; filed as Kd, often an IC50 or EC50 that approximates it; ≥ and ≤ were set here for values at or beyond the usual limits of such assays.
Setting [4] is: source organism: Zaire ebolavirus.
Setting [5] is: source organism: Mammarenavirus guanaritoense.
[6] abbreviates: source organism: Vaccinia virus WR.
Where [7] appears, read: source organism: Dengue virus 4 Philippines/H241/1956.
Where [8] appears, read: source organism: Sudan ebolavirus.
Where [9] appears, read: source organism: Giardia lamblia ATCC 50803.
[10] abbreviates: source organism: Dengue virus 2 Jamaica/1409/1983.
Where [11] appears, read: source organism: Dengue virus 1 Brazil/97-11/1997.
[12] abbreviates: source organism: Pseudomonas aeruginosa.
Where [13] appears, read: source organism: Aromatoleum aromaticum.
Setting [14] is: source organism: Lymphocytic choriomeningitis virus (strain Armstrong).
[15] abbreviates: source organism: SARS coronavirus Tor2.
Where [16] appears, read: source organism: Salmonella enterica subsp. enterica serovar Typhimurium.
Setting [17] is: source organism: Vibrio vulnificus YJ016.
The mark [18] stands for this setting: source organism: Mammarenavirus whitewaterense.

In the case of TWRDMAHTLI, the dissociation constant Kd (commonly a measure of binding affinity in units of concentration) with HLA-A*24:02 (source organism: Dengue virus 3 Martinique/1243/1999) turned out to be 387 nM.
On to YTYPDSLEE, for which, in the experiment with HLA-A*02:01 [1] (setting [4]), the IC50 – broadly, the concentration that gives 50% inhibition – is not below 264000 nM.
As to SFYSDPKRFF, the values for the Kd with HLA-A*23:01 (setting [5]), with HLA-A*24:02 (setting [5]) and with HLA-A*29:02 (setting [5]) were 226 nM, 740 nM and 124 nM, respectively.
On to LIGIEILNT, for which, in the experiment with HLA-A*02:01 [1] (setting [6]), the IC50 is not below 147000 nM.
As for NFLEVEDYGF, the Kd is 54.7 nM in the experiment with HLA-A*23:01 (setting [7]) and not below 31700 nM with HLA-A*24:02 (setting [7]).
In turn, HHQDTGEES yielded an IC50 in the experiment with HLA-A*02:01 [1] (setting [4]) not below 223000 nM.
On to NLEGSGVST, for which, in the experiment with HLA-A*02:01 [1] (setting [8]), the IC50 amounted to 67600 nM.
As to SVMATEEPT, in the experiment with HLA-A*02:01 [1] (setting [8]), the half-maximal inhibitory concentration (IC50) was not below 115000 nM.
Consider FMYEDALKS, for which the dissociation constant (Kd) in the experiment with HLA-A*02:01 [2] (setting [9]) was 43.5 nM; in the experiment with HLA-A*69:01 (setting [9]), 1360 nM.
Take IYKAPSENW: the dissociation constant Kd with HLA-A*24:02 (source organism: Homo sapiens) is 39 nM.
Consider DWIPLALTI, for which, in the experiment with HLA-A*24:02 (setting [10]), the Kd is 16 nM.
On to GTTVVKVKY, for which the equilibrium dissociation constant (Kd) with HLA-A*30:02 (setting [7]) was found to be 244 nM.
Consider SYLAGAGLL, for which the Kd with HLA-A*24:02 (setting [10]) worked out at 19.4 nM.
For WHLGKLELDF, in the experiment with HLA-A*23:01 (setting [11]), the Kd is 296 nM.
For ACMDGFEVV, the values for the Kd in the experiment with HLA-A*02:01 [2] (setting [12]) and in the experiment with HLA-A*69:01 (setting [12]) were 290 nM and 2700 nM, respectively.
As to KAALSEGVY, the equilibrium dissociation constant (Kd) in the experiment with HLA-A*30:02 (source organism: Dengue virus 4 Dominica/814669/1981) was found to be 15 nM.
Turning to VLEGFEGDL, the dissociation constant Kd was 17000 nM with HLA-A*02:01 [2] (setting [13]) and not below 20000 nM with HLA-A*69:01 (setting [13]).
As for LSSTRVPNY, the equilibrium dissociation constant (Kd) was determined as 2040 nM in the experiment with HLA-A*01:01 (setting [7]) and 194 nM with HLA-A*30:02 (setting [7]).
ALMDCIIFES: the Kd with HLA-A*02:02 (setting [14]) is 2.13 nM; with HLA-A*02:03 (setting [14]) it was 16.4 nM; with HLA-A*02:06 (setting [14]) it was 12.8 nM.
With RILGPDCCI, the half-maximal inhibitory concentration (IC50) with HLA-A*02:01 [1] (setting [8]) amounted to 64000 nM.
Take LLPLTSLVI: the Kd with HLA-A*02:02 (setting [6]) amounted to 2390 nM; with HLA-A*02:03 (setting [6]) it was 621 nM; in the experiment with HLA-A*02:06 (setting [6]), 1430 nM.
Take RGSGQVGTY: the Kd in the experiment with HLA-A*30:02 (setting [10]) came out at 208 nM.
Regarding GLIAIVMVTI, the Kd with HLA-A*02:02 (setting [15]) was 7.63 nM; with HLA-A*02:03 (setting [15]), 18.9 nM; in the experiment with HLA-A*02:06 (setting [15]) it was 137 nM.
Consider WTEAKMLLD, for which the Kd in the experiment with HLA-A*01:01 (setting [11]) stood at 943 nM.
In the case of EIMDKEQLL, the Kd with HLA-A*02:02 (setting [6]) is 183 nM; with HLA-A*02:03 (setting [6]), 427 nM; with HLA-A*02:06 (setting [6]) it was not below 26500 nM.
For ALSMADIFI, the Kd in the experiment with HLA-A*02:01 [2] (setting [16]) came out at 106 nM; in the experiment with HLA-A*69:01 (setting [16]) it was 1080 nM.
Regarding CTINVNSLAL, the figures for the dissociation constant (Kd) with HLA-A*02:02 (setting [6]), with HLA-A*02:03 (setting [6]) and in the experiment with HLA-A*02:06 (setting [6]) were 494 nM, 1040 nM and 216 nM, respectively.
For IITILQDIV the same measures were 827 nM, 666 nM and 658 nM.
With NAILHNIYRL, the results for the Kd with HLA-A*02:02 (setting [6]), with HLA-A*02:03 (setting [6]) and in the experiment with HLA-A*02:06 (setting [6]) were 5610 nM, 10200 nM and 576 nM, respectively.
As for PTEMVDVSMM, the Kd with HLA-A*02:02 (setting [6]) is 11500 nM; with HLA-A*02:03 (setting [6]), not below 70400 nM; in the experiment with HLA-A*02:06 (setting [6]), 12100 nM.
The matching figures for IVFGIYKDNL: 187 nM, 792 nM and 47.8 nM.
In the case of CMLDGGNML, the dissociation constant Kd with HLA-A*69:01 (source organism: Mammarenavirus lassaense) is not below 20000 nM; in the experiment with HLA-A*02:01 [3] (source organism: Lassa virus Josiah), 2.97 nM.
Turning to FVATFRDML, the results for the Kd in the experiment with HLA-A*02:02 (setting [6]), with HLA-A*02:03 (setting [6]) and with HLA-A*02:06 (setting [6]) were 2350 nM, 206 nM and 487 nM, respectively.
As for KINEMVDEL, the dissociation constant Kd with HLA-A*02:02 (setting [6]) was determined as 1.42 nM; in the experiment with HLA-A*02:03 (setting [6]) it was 75.6 nM; in the experiment with HLA-A*02:06 (setting [6]), 317 nM.
With EAAAATCALV, the Kd worked out at 1810 nM in the experiment with HLA-A*02:02 (setting [6]), 248 nM in the experiment with HLA-A*02:03 (setting [6]) and 60.1 nM with HLA-A*02:06 (setting [6]).
As for RQLQREGLV, the values for the dissociation constant (Kd) with HLA-A*02:01 [2] (setting [17]) and with HLA-A*69:01 (setting [17]) were not below 5000 nM and not below 20000 nM, respectively.
NNNTHHQDT displayed an IC50 in the experiment with HLA-A*02:01 [1] (setting [4]) not below 253000 nM.
In the case of FAISYCRAFI, the dissociation constant (Kd) in the experiment with HLA-A*02:02 (setting [6]) came to 105 nM; with HLA-A*02:03 (setting [6]), 38.3 nM; with HLA-A*02:06 (setting [6]) it was 34.5 nM.
AMISLAKKI gave an equilibrium dissociation constant (Kd) with HLA-A*02:01 [3] (source organism: Vaccinia virus WR 65-16) of 903 nM.
As for ILFPDDVQEL, the Kd in the experiment with HLA-A*02:01 [3] (setting [6]) came to 1.1 nM.
With LQFIVFLLL, the results for the equilibrium dissociation constant (Kd) in the experiment with HLA-A*23:01 (setting [18]), with HLA-A*24:02 (setting [18]) and with HLA-A*29:02 (setting [18]) were 11300 nM, not below 77500 nM and 4670 nM, respectively.
